Laboratory results as given in the Human Domainome abundance scans (Beltran et al. 2025).
± gives the uncertainty stated by the source.

B1: Chromodomain-helicase-DNA-binding protein 4, residues 365 to 417; numbered along this chain, Q14839 (parent)
chain: YETDHQDYCEVCQQGGEIILCDTCPRAYHMVCLDPDMEKAPEGKWSCPHCEKE

Variants of: B1
Assay: abundance fitness (aPCA) (normalised: wild type 0, dead -1); higher = more abundant; growth selection in yeast, the domain comes from the species named
Conditions: Homo sapiens

Variant	abundance fitness
P41C	-0.212 ± 0.14
P41V	-0.218 ± 0.12
P41E	0.07 ± 0.14
P41Q	-0.109 ± 0.18
P41R	0.123 ± 0.094
P41S	-0.046 ± 0.1
P41A	0.117 ± 0.12
P41M	-0.06 ± 0.16
P41L	-0.092 ± 0.1
P41H	-0.378 ± 0.2
P41T	-0.105 ± 0.16
P41Y	0.022 ± 0.19
P41G	0.151 ± 0.1
P41F	0.034 ± 0.17
P41N	0.435 ± 0.23
P41K	-0.015 ± 0.18
P41D	0.022 ± 0.17
P41I	0.055 ± 0.17
E38Q	-0.19 ± 0.2
E38P	-0.143 ± 0.13
E38F	0.142 ± 0.18
E38W	-0.281 ± 0.14
E38R	-0.029 ± 0.1
E38L	-0.197 ± 0.11

Variant	abundance fitness
E38D	-0.074 ± 0.15
E38K	-0.244 ± 0.18
E38G	-0.056 ± 0.082
E38Y	-0.093 ± 0.25
E38I	-0.106 ± 0.18
E38T	-0.657 ± 0.22
E38N	-0.183 ± 0.26
E38A	-0.261 ± 0.11
E38M	-0.784 ± 0.21
E38S	-0.266 ± 0.11
E38H	-0.079 ± 0.26
E38C	-0.028 ± 0.11
E38V	-0.063 ± 0.11
K44G	0.164 ± 0.095
K44Q	0.309 ± 0.13
K44S	0.102 ± 0.11
K44A	-0.017 ± 0.15
K44P	0.062 ± 0.14
K44T	0.218 ± 0.15
K44W	0.098 ± 0.12
K44H	-0.3 ± 0.21
K44C	-0.152 ± 0.14
K44E	0.079 ± 0.14
K44N	-0.373 ± 0.29

Variant	abundance fitness
K44L	-0.145 ± 0.1
K44F	-0.028 ± 0.16
K44I	-0.427 ± 0.3
K44R	0.05 ± 0.097
K44Y	-0.31 ± 0.18
K44M	-0.066 ± 0.12
K44V	-0.109 ± 0.11
D36I	-0.245 ± 0.17
D36V	-0.052 ± 0.11
D36K	0.06 ± 0.18
D36A	-0.079 ± 0.12
D36H	0.161 ± 0.23
D36T	0.078 ± 0.22
D36S	0.202 ± 0.11
D36E	0.13 ± 0.17
D36W	-0.37 ± 0.14
D36N	0.026 ± 0.2
D36R	-0.055 ± 0.12
D36P	-0.136 ± 0.13
D36F	-0.325 ± 0.19
D36G	-0.079 ± 0.1
D36Q	-0.05 ± 0.19
D36L	-0.5 ± 0.12
D36Y	-0.657 ± 0.23

Variant	abundance fitness
D36M	-0.185 ± 0.2
A40I	0.464 ± 0.2
A40H	0.33 ± 0.2
A40F	0.015 ± 0.18
A40Q	-0.208 ± 0.16
A40R	-0.178 ± 0.12
A40V	-0.093 ± 0.094
A40S	-0.126 ± 0.094
A40E	-0.102 ± 0.16
A40L	0.095 ± 0.1
A40G	-0.157 ± 0.1
A40W	-0.135 ± 0.13
A40C	-0.035 ± 0.16
A40K	-0.043 ± 0.2
A40T	-0.151 ± 0.14
A40M	0.043 ± 0.14
A40P	-0.209 ± 0.12
A40Y	-0.462 ± 0.17
A40N	-0.351 ± 0.27
A40D	0.016 ± 0.17
G43F	-0.35 ± 0.18
G43W	-0.164 ± 0.11
G43H	-0.505 ± 0.26
G43A	0.061 ± 0.12

Variant	abundance fitness
G43K	-0.012 ± 0.2
G43V	-0.375 ± 0.12
G43I	-0.382 ± 0.22
G43Q	-0.078 ± 0.15
G43P	-0.209 ± 0.15
G43D	-0.164 ± 0.19
G43S	-0.099 ± 0.12
G43R	-0.09 ± 0.086
G43T	-0.272 ± 0.15
G43C	-0.217 ± 0.15
G43M	-0.151 ± 0.14
G43L	-0.232 ± 0.099
G43E	0.179 ± 0.15
G43N	-0.076 ± 0.21
C47F	-0.565 ± 0.24
C47H	-0.477 ± 0.33
C47D	-0.468 ± 0.17
C47A	-0.756 ± 0.12
C47E	-0.331 ± 0.14
C47G	-0.867 ± 0.11
C47K	-0.81 ± 0.2
Y28S	-0.271 ± 0.098
Y28W	0.086 ± 0.12
Y28N	-0.403 ± 0.18

Variant	abundance fitness
Y28T	-0.284 ± 0.14
Y28Q	-0.395 ± 0.14
Y28M	0.048 ± 0.12
Y28R	-0.254 ± 0.094
Y28P	-0.704 ± 0.14
Y28V	-0.05 ± 0.096
E42M	-0.069 ± 0.15
E42P	0.052 ± 0.18
E42G	-0.114 ± 0.11
E42V	0.066 ± 0.11
E42C	-0.026 ± 0.21
E42W	-0.49 ± 0.14
E42A	-0.178 ± 0.13
E42K	0.026 ± 0.18
E42F	-0.315 ± 0.22
E42T	0.066 ± 0.17
E42Y	-0.17 ± 0.27
E42H	-0.394 ± 0.21
E42S	-0.129 ± 0.13
E42I	-0.261 ± 0.23
E42Q	-0.012 ± 0.17
E42D	-0.182 ± 0.16
E42L	-0.087 ± 0.11
P35V	-0.04 ± 0.098

Variant	abundance fitness
P35Y	0.272 ± 0.26
P35K	-0.374 ± 0.18
P35T	0.054 ± 0.14
P35W	-0.236 ± 0.13
P35M	-0.054 ± 0.16
P35L	-0.191 ± 0.1
P35R	0.029 ± 0.1
P35H	-0.001 ± 0.33
P35C	-0.1 ± 0.15
P35S	0.125 ± 0.11
P35A	-0.016 ± 0.097
P35Q	-0.284 ± 0.22
P35E	-0.345 ± 0.15
P35N	-0.023 ± 0.26
P35G	0.038 ± 0.089
W45Y	-0.207 ± 0.18
W45V	0.115 ± 0.11
W45M	0.179 ± 0.15
W45T	0.085 ± 0.16
W45K	-0.483 ± 0.27
W45H	-0.119 ± 0.21
W45P	-0.161 ± 0.22
W45R	-0.162 ± 0.09
